Data from paper PMC10003451, “Phosphorylated Peptide Derived from the Myosin Phosphatase Target Subunit Is a Novel Inhibitor of Protein Phosphatase-1” (International Journal of Molecular Sciences, 2023).
Where no end group is shown, it is not given here. [ ]: non-standard residue; d: D form. pT = C[C@@H](OP(=O)(O)O)[C@H](N)C(=O)O

What was measured:
[1] = target: T1, recombinant protein phosphatase-1 catalytic subunit alpha (PP1cα) (UniProt P62136 1-330); assay: ITC; MicroCal ITC200; rPP1cα (0.5-2 µM) in the cell, peptide (5-20 µM) in the syringe, 19 injections of 2 µL; 25 mM Tris/HCl pH 8.0, 150 mM NaCl, 1 mM TCEP; 25 °C; one set of sites model; details: both partners purified
T1 construct: protein phosphatase-1 catalytic subunit, alpha isoform; recombinant; also called rPP1cα; recombinant PP1c; source: E. coli, purified from the bacterial lysate

[2] = target: Flag-MYPT1-PP1c complex (myosin phosphatase holoenzyme) ( | human (endogenous in …, UniProt O14974 1-1030; P62140 1-327); assay: cell-based or functional assay
[3] = target: native catalytic subunit of protein phosphatase-1 (PP1c) from rabbit skeletal muscle (rabbit, UniProt P62139 1-330); assay: cell-based or functional assay
[4] = target: T1, recombinant protein phosphatase-1 …; assay: MST; label-free (Monolith NT.LabelFree, intrinsic fluorescence of rPP1cα); 16-point two-fold peptide dilution 9.16 nM-300 µM mixed with rPP1cα 2 µM; 25 mM Tris/HCl, 100 mM NaCl, 1 mM DTT, 0.1% PEG 8000, pH 8.0; details: both partners purified

Sequence of native catalytic subunit of protein phosphatase-1 (PP1c) from rabbit skeletal muscle (P62139 whole entry): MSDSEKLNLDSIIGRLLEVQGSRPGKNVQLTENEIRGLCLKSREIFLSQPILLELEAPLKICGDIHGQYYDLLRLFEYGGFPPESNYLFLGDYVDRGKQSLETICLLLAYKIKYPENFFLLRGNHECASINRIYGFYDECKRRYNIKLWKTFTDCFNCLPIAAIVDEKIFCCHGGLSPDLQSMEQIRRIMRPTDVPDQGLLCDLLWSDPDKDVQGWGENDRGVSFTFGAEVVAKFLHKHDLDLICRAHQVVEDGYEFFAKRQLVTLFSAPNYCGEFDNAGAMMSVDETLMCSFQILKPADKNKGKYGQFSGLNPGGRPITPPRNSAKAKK
T1 sequence (P62136 whole entry, canonical isoform): as the sequence (P62139 whole entry) above
Sequence of Flag-MYPT1-PP1c complex (myosin phosphatase holoenzyme) ( | human (O14974 whole entry, chain 1 of 2): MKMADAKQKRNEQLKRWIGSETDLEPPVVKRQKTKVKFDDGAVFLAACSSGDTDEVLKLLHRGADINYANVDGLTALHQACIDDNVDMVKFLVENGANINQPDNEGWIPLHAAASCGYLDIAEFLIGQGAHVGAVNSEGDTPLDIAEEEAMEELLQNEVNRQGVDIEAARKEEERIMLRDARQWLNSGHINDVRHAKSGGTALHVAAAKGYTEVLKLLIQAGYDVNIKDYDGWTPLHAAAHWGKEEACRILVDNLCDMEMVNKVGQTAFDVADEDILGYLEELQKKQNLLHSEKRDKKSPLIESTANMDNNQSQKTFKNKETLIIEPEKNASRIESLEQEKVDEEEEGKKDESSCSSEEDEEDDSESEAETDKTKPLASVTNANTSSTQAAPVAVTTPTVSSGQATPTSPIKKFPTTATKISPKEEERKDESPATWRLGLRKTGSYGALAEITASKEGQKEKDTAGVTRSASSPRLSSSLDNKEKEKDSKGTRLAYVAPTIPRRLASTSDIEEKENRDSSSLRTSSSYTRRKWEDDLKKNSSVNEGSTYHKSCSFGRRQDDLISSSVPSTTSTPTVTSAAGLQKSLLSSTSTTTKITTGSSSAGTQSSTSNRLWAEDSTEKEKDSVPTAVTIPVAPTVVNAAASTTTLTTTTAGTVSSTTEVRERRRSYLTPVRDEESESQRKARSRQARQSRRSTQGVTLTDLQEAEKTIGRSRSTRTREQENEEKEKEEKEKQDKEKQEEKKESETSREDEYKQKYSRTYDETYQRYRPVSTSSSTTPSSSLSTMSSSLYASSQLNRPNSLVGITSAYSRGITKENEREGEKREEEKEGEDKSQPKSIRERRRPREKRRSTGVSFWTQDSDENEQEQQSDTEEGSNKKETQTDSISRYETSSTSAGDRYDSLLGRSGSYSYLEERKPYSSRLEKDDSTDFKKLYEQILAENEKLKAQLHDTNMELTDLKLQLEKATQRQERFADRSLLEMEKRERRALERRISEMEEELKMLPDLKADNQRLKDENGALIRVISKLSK
Sequence of Flag-MYPT1-PP1c complex (myosin phosphatase holoenzyme) ( | human (P62140 whole entry, chain 2 of 2): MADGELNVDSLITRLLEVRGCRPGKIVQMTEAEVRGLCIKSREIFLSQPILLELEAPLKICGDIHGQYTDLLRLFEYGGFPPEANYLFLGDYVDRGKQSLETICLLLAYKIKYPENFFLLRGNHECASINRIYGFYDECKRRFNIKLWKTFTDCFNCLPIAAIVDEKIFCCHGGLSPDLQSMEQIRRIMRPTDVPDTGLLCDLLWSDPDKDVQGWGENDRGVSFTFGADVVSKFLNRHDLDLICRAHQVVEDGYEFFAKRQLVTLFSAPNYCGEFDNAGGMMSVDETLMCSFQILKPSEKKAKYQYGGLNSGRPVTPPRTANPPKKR

B1: P-Thr696-MYPT1^690−701 (phosphorylated peptide of the inhibitory region of myosin phosphatase target subunit-1) (peptide)
peptide: RQSRRS[pT]QGVTL
notes: myosin phosphatase target subunit-1 (MYPT1), residues 690-701, phosphorylated at Thr696; no tags; also called R^690QSRRS(pT696)QGVTL^701; P-Thr-MYPT1^690−701; source: synthetic peptide, bought: Pepmic
Kd [1]: 0.39 ± 0.18 µM | IC50 of inhibition of the phosphatase activity of Flag-MYPT1-PP1c with 32P-MLC20 substrate [2]: 12.2 µM | IC50 of inhibition of the phosphatase activity of rabbit skeletal muscle PP1c with 32P-MLC20 substrate [3]: 3.84 µM | half-life of dephosphorylation of 10 µM 32P-MLC20 by 100 nM PP1c with 0, 10, 100 and 500 µM peptide (101.6, 149.7, 227.9, 604.06 s); the peptide competes with the substrate P-MLC20 on PP1c [3]: 10.1 min | half-life of dephosphorylation of 100 µM peptide by 100 nM PP1c in the presence of 10 µM P-MLC20 (dot blot; 87.9 min without P-MLC20) [3]: ~103 min | Kd [4]: 33.2 ± 5.12 µM
